Results taken from PMC12947556.

Key:
[1] = biological target: ([H3.2]·[H3.2K4me3K27me3]) heterotypic nucleosome (UniProt Q71DI3); assay: Captify Luminex bead-based binding assay; GST-PtSHL titrated to a multiplex panel of PTM-defined homotypic and heterotypic nucleosomes; median fluorescence intensity; EC50^rel
[2] = biological target: ([H3K4me3K27me3]2) homotypic nucleosome; assay: as above

With GST-PtSHL BAH-PHD (domain or fragment) the fold preference over ([H3.2K4me3]·[H3.2K27me3]) or its comprising PTMs [1] was > 350 fold and the fold preference over nucleosomes with each comprising PTM [2] was > 150 fold.
